This sample holds only a part of the variants without activity.
B1: TPR 5TU (parent)
chain: GGAUCUUCUCGAUCUAACAAAAAAGACAAAUCUGCCACAAAGCUUGAGAGCAUCUUCGGAUGCAGAGGCGGCAGCCUUCGGUGGCGCGAUAGCGCCAACGUUCUCAACUAUGACACGCAAAACGCGUGCUCCGUUGAAUGGAGUUUAUCAUG

Variants of: B1
Experiment: polymerase ribozyme fitness, log enrichment relative to wild type (log ratio); higher = more active; in vitro selection for triplet polymerase activity
Outline: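 Mutant libraries of each subunit of a heterodimeric triplet polymerase ribozyme were built by PCR and transcribed. Each library went through one round of in vitro selection in triplicate: annealing with biotinylated primer, partner subunit and triplets, frozen incubation at −7 °C, gel excision of extended constructs, streptavidin-bead capture and RT-PCR. Input and output libraries were Illumina-sequenced; only genotypes with ≥10 input reads and ≥1 read per output were kept. Fitness is log2(genotype enrichment/wild-type enrichment), using inverse-variance-weighted replicate averages.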

| Variant | polymerase ribozyme fitness (log ratio) |
| --- | --- |
| GGAUCUUCUCGAUCUAACAAAAAAGACAAAUCUGCCACACAGCUUGAGAGCAUCUUCGGAUGCAGAGGGGGCAGUCUUCGGUGGCGCGAUAGCGCCAUCGUUCUCAACUAUGACACGCAAAACGCGUGCUCCGUGGAAUGGAGUUUAUCAGG [A40C C69G C75U A98U U135G U151G] | ≤ -4.2 |
| GGAUCUUCUCGAUCUAACAAAAAAGACAAAUCUGCCACACAGCUUGAGAGCAUCUUCGGAUGCAGAGGCGGCAGCCUUCGGUGGCGCGAUAGCGCCAACGUUCUCAACUAUGACACGCAAAACGCGUGCUCCGUUGGAUGGAGUUUAUCAUG [A40C A137G] | -1.42 |
| GGAUCUUCUCGAUCUAACAAAAAAGACAAAUCUGCCACUAAGCUUGAGAGCAUCUUCGGAUGCAGAGGCGGCAGCCUUCGGAGGCGCGAUAGCGCCAACGUUCUCGACUAUGACACGCAAAACGCGUGCUCCGUUGAAUGGAGUUUAUCAUG [A39U U82A A106G] | -1.88 |
| GGAUCUUCUCGAUCUAACAAAAAAGACAAAUCUGCCACACAGCUUGAGAGCAUCUUUGGAUGCAGAGGCGGCAGCCUUCGGUGGCGCGAUAGCGCCAACGUUCUCAACUAUGACACGCAAAACGCGUGCUCCGUUGAAUGGAGUUUAUCAUG [A40C C57U] | 0.521 |
| GGAUCUUCUCGAUCUAACAAAAAAGACAAAUCUGCCACACAGCUUGAGAGCCUCUUCGGAUGCAGAGGCGGCAGCCUUCGAUAGCGCGAUAGGGCCAACGUUCUCAACUAUGACACGCAAAACGCGUGCUCCGUUGAAUGGAGUUUAUCAUG [A40C A52C G81A G83A C93G] | ≤ -4.2 |
| GGAUCUUCUCGAUCUAACAAAAAAGACAAAUCUGCCACACAGCUUGAGUGCUUCUUCGGGUGCAGAGGCGGCAGCCUUCGGUUGCGCGAUAGCGCCAACGUUCUCAACUAUGACACGCAAAACGCGUGCUCCGUUGAAUGGAGUUUAUCAUG [A40C A49U A52U A60G G83U] | ≤ -4.2 |
| GGAUCUUCUCGAUCUAACAAAAAAGACAAAUCUGCCACACAGCUUGAGAGCAUCUUCGGAUGCAGAGGCGGCAGCCUUCGGUGGGGCGAUAGCGCCAACGUUCUCAAGUAUGACACGCAAAACGCGUGCUCCGUUGAAUGGAGUUUAUCAUG [A40C C85G C108G] | ≤ -4.2 |
| GGAUCUUCUCGAUCUAACAAAAAAGACAAAUCUGCCACUAAGCUUGAGAGCAUCAUCGUAUGCAGAGGCGGCAGCCUUCGGUGGCGCGAUAGCGCCAACGUUCUCAACUAUGACACACAAUACGCGUGCUCCGUUGAAUGGAGUUUAUCAUG [A39U U55A G59U G117A A121U] | -1.11 |
| GGAUCUUCUCGAUCUAACAAAAAAGACAAAUCUGCCACACAGCUUGAGAGCCUCUUCGGAUGCAGAGGCGGCAGCCUUCGGUGGCGCGAUAGCGCCAACGUUCUCAACUAUGACACGCAAAACGCGUGCUCCGUUGAAUGGAGUUUAUCAUG [A40C A52C] | -1.04 |
| GGAUCUUCUCGAUCUAACAAAAAAGACAAAUCUGCCACACAGCUUGAGAGCAUCUUCGGAUGCAGAGGCGGCAGCCUUCGGUGGCGCGAUAGCGCCAGCGUUCUCAACUAUGACACGCAAAACGCGUGCUCCGUUGAAUGGAGUUGAUCAUC [A40C A98G U146G G152C] | ≤ -4.2 |
| GGAUCUUCUCGAUCUAACAAAAAAGACAAAUCUGCCACUAAGCUUGAGAGCAACUCCGGCAGCAGAGGCGGCAGCCUUCGGUGGCUCGGUAGCGCCAACGUUCUCAACUAUGACACGCAAAACGCGUGCUCCGUUGAAUGGAGUUUAUCAUG [A39U U53A U56C A60C U61A G86U A89G] | -4.17 |
| GGAUCUUCUCGAUCUAACAAAAAAGACAAAUCUGCCACACAGCUUGAGAGCAUCUUCGGAUGCAGAGGCGGCAGCCUUCGGUGGCGCGAUAGCGCUAACGUUCUCAACUAUGACACGCAAAACGCGUGCUCCGUUGAAUGGAGUUUAUCGUG [A40C C96U A150G] | -1.3 |
| GGAUCUUCUCGAUCUAACAAAAAAGACAAAUCUGCCACACAGCUUGAGAGCAUCUUCGGAUGCAGAGGCGGCAGCCUUCGGUGGCGCGAUAGCGCCAACGUUCUCAACUAUGACACGCAAAACGCGUGCUCCGUUGAAUGGAGUUUAUCAUG [A40C] | 0.603 |
| GGAUCUUCUCGAUCUAACAAAAAAGACAAAUCUGCCACACAGCUUGAGAGCAUCUUCGGAUGCAGAGGCGGCAGCCUUCGGUGGCGUGAUAGCGCCAACGUUCUCAACUAUGACACCCAAAACGCGUGCUCCGUUGAAUGGAGUUUAUCAUG [A40C C87U G117C] | -0.313 |
| GGAUCUUCUCGAUCUAACAAAAAAGACAAAUCUGCCACACAGCUUGAGAGCGUCUUCGGAUGCAGAGGCGGCAGCCUUCUGUGGCGCGAUAGCGCCAACGUUCUCAACUAUGAGACGCAAAACGCGUUCUCCUUUGAAUGGAGUUUAUCAUG [A40C A52G G80U C114G G128U G133U] | ≤ -4.2 |
| GGAUCUUCUCGAUCUAACAAAAAAGACAAAUCUGCCACACAGCUUGCGAGCAUCUUCGGCUGCAGAGGCGUCAGCCUUCGGUGGCGCGAUCGUGCCAACGUUCUCAACUAUGACACGCAAAACGCGUGCUCCGUUGAAUGGAGUUUAUCAUG [A40C A47C A60C G71U A91C C93U] | ≤ -4.2 |
| GGAUCUUCUCGAUCUAACAAAAAAGACAAAUCUGCCACACAGCUUGAGGGCAUCAUCGGAUGCAGAGGCGGCAGCCUUCAGUGGUGCGAUAGCGCCAACGUUCUCAACUAUGACACGCAAAACGCGUGCUCCGUUGAAUCGAGUUUAUCAUG [A40C A49G U55A G80A C85U G140C] | ≤ -4.2 |
| GGAUCUUCUCGAUCUAACAAAAAAGACAAAUCUGCCACACAGCUUGAGAGCAUCUUCGGAUGCAGAGGCGGCAGCCUUCGGUGGGGUGAUAGUGCCAACGUUCUCAACUAUGACACGCAAAACGCGUGCUCCGUUGAAUGGAGUUUACCAUG [A40C C85G C87U C93U U148C] | ≤ -4.2 |
| GGAUCUUCUCGAUCUAACAAAAAAGACAAAUCUGCCACACAGCUUGAGAGCAUCUUCGGAUGCAGAGGCGGCAGCCUUCGGUGGGGCGAUAGCGCCAACGUUCUCGACUAUGACACCCAAAACGCGUGCUCCGUUGAAUGGAGUUUAUCAUG [A40C C85G A106G G117C] | -1.29 |
